# Measured values from the DeepSol protein solubility set.
# Test: soluble on expression in E. coli; label from the status in PepcDB or PDB records
row,Sequence,soluble on expression in E. coli
1,MGSDKIHHHHHHMEIEAVEKEAIEKLSKISNVQELESFRIEFLGKKGKITGLMKNLKNLPPEERPAYGKRVNELREKIEKLFEEKRQQIQRILEQEKMEKMRIDVTVPGARRKLGHSHPVLKVMEEIERIFVSMGFDVVEGPEIETTWHNFDALNTPEWHPARDEHDSFYITDDLLLRTHTSPVQIRTMLERKPPIAIISPGKVYRRDYDATHLPMFHQVEGLHVDRDLSVAHLKFTLEEFARRMFGEGAKVRLRPSFFPFTEPSFEVDVYLSGYGWLEILGAGMVDPNVFLNVGYDPEEWTGYAFGMGVERIAMLKYGIADIREFVRNDVRFLSSY,not soluble
2,MRIGLFTDTYFPQVSGVATSIRTLKTQLEKMGHNVFIFTTTDRDVDRYEDWQIIRIPSVPFFAFKDRRVAYRGFSKALEIAKQYKLDIIHTQTEFSLGLLGIAIAHELKIPVVHTYHTQYEDYVRYIAKGMVIRPSMVKYIVRGFMSDLDGVICPSEIVYDLLLKYKVAAEKRVIPTGIELEKFQRPEITEEDVSDLRAKLGISSDETMLLSLSRVSYEKNIQAVMAALPSVLEEEDKVRLVVAGDGPYLPHLKSQAKKLGIEDKVVFTGMIAPGETALYYKAADFFISASTSETQGLTYLEALASGTPIIAHGNTYLDNIITDKMFGILYYHDNDLAGAILEAAIVTPEKDETKWAEKLYEISAENFGKRVYEYYLDLTISKDFHNDLNGEDSTMKRLTRMVTHLPTKAITLPVNGSVRIIKGSAKQVKKIRNIKKFLDLEHHHHHH,soluble
3,STDDKDVLRDVWFGRIPTCFTLYQDEITEREAEPYYLLLPRVSYLTLVTDKVKKHFQKVMRQEDVSEIWFEYEGTPLKWHYPIGLLFDLLASSSALPWNITVHFKSFPEKDLLHCPSKDAVEAHFMSCMKEADALKHKSQVINEMQKKDHKQLWMGLQNDRFDQFWAINRKLMEYPPEENGFRYIPFRIYQTTTERPFIQKLFRPVAADGQLHTLGDLLREVCPSAVAPEDGEKRSQVMIHGIEPMLETPLQWLSEHLSYPDNFLHISIVPQPTD,soluble
4,MGPAKKKKKGKEKKFRRELGSWSAVELEKFIEYKAEDAGKKVIYINPKYSPQKCSRCGYVSKENRHDSVFKCKNCGFELNADLNASRNIEVIRVSEYFRLLSASQSLLFNETPLTGGAGDQRQAPKLLEHHHHHH,soluble
5,MAKIALIGASGNAGSRILKELSDRGHQVTAIARNPEKIAALPNVVAKKGDVFDQAALSELLKGHDAVISSVHFTASDPATLIEAVRASGVQRYLVVGGAGSLEIAPGQRVVDLPDFPAAYKAEATKGAEFLDKLKQEKQLDWTFLSPSAEFVPGERTGKFRIGKDNLLSNEQGSRISFEDYAIALADEIEKPQHSRQRFTVGY,not soluble
6,MGSDKIHHHHHHMTGHYSKTEHQYILLTSESASFDHYSVYRDPQLPQIFSHNFVQLHDTFPLERLLNFLPSVPKLLDANYLHLKASPQHVFPLGLKQSLVKSGFVVEDELLYDMKLSDWKGQMGHPLTAWGTAKSLSDGSSIMKIYDSIYIGEAIAEQKLKRKYPFYEADIIILVVCYSDQAQKVPIGCGELFIDHQEKTAKIEEVAILDQFQRKGYGSILVKEMLSIAKSLGMEAAYLVAASTDGATQFYEKLTFKKYERVHTVFHYFLT,not soluble
7,MSLAENSLKIWNWSYYIDEALLDEFAAHAGIPRENIVYDEYDDPNVVLSRLEAGKSGYDVVIIPDYILDVAIKEGLLMELNKSLIPNYPHLDEKFKSTPYDPEGRYSAVYMWGTTGFGYRSDLAEKVTTLRQIFDPDYGYLKKYSKKITMLEEPIEVILACKAFLGKSVDDWSDETMQEVKEALIRQKPYLAAYAGANVYVEGLKNGSIYVAHAYNGDIVRLQDEEGVDQASFAIPEEGGTIWTDNMCIPKDAENVELAHEFINFMLDPEVSGRNSDYIKYASPVKEARNYVSEEVLENPAVYVPEDLMKKLWFTPQLDEEARRKIENLMIEVKASTEGHHHHHH,soluble
8,MGEELNRLLDVLGNETRRRILFLLTKRPYFVSELSRELGVGQKAVLEHLRILEEAGLIESRVEKIPRGRPRKYYMIKKGLRLEILLTPTLFGSEMYEAKGVRKSPEYEQAKELIKSQEPINVKMRELAEFLHELNERIREIIEEKRELEEARILIETYIENTMRRLAEENRQIIEEIFRDIEKILPPGYARSLKEKFLNINI,soluble
9,MTQATTRICILGGGFGGLYTALRLSQLPWESTPKPEIILVDQSDRFLFSPFLYELLTGELQAWEIAPPYQELLQGTGVRFHQAVVSEIDTDKQQVQLQNGLEIAYDRLVLALGGETPLDLVPGATTYAHHFRSITEVYRLEESLRVLEASETEKIRIAIVGAGYSGVELACKLADRIGEKGRFRLIEISDQILRTSPEFNRQAAKKALETRGVFIDLETKVVSIGENTISLEYKTQVDEIPVDLVIWTVGTRVAPLVKTLPLKQNQRGQITTTSKLQVLEHPEIFALGDLADCLDTEGKQVPATAQVAFQQADYTAWNIWASLTNRPLLPFRYQQLGEMMALGVDNATLTGLGIKLDGSLAYIARRLAYLYRLPTLEHQLKVGFSWLVSPIIKTLSQ,not soluble
10,MSLETTVITADRMIDVANGKVVKQAAVIVTDNIITASGRLKDLTVPNEATRIDLGNATLMPGLMDMHVHLTSDATRHGYKRLEVSLPRAAITGVKHAKATLDAGFTTVRNVGAPGFADVALRDAINAGDVVGPRMFVAGPSLGVTGGHCDSNLLPYEYDNYSEGVADGPWEVRKKVRRNIKYGATVIKFCATGGVLSKGTKVGAQQYTFEEMKALIDEAHLRGLTVATHAHGTNGIKAAIKASVDSVEHVSLLDDEAIDLAKKNGTYFSMDIYVTEYILGEGEKAGILEESLNKERIVGKTQRENFEKAVKAGVNMVFGSDAEGHHHHHH,soluble
11,MGSDKIHHHHHHMSSLLQQFHDEISLRGYSARTRNAYLYAITQLQHYANQPLDNITDEQLTAYFRYLNLEWHHSRATLKLQLNGIHFFYEHVLKRDFTIQLSLPKRPHKLPQLLSCQDIAALLYHCQNLKQRAMLALCYGCGLRVSELTHIKVADIDGQRQLLKVCQGKGACDRWVILSPTLLILLRQYWQAYHPVEWLFASTYHDVVYPLHESTFRKALAKAARLASITKPCSPHSLRHAYATHQLQAGMPLHQLQAQLGHHSIKSTERYLHWSPELGHQGCDLLASLGGMPWQPPTI,not soluble
12,MGSDKIHHHHHHMTQRQERLFVLEASSGGRLFSVNPDGSDKKVIVTGCRIPDGVAIDVLAGHVYWTNMGLPPENDGSIERVDLDGGNRTTIVPSGVTHTPKQLYLEAVGRKLYWGDREGMRVMRCDLDGSHVETLVQTGQGEDDRRDETRWCVGVAVDPAGGHLYWTQKGPSDAGLGKILRAGISLPAGESAAERGDIEVLFEGLPEPIDLELDLAERMLYWTDRGDPPRGNSVNRSPMHPPDAQRTPEILLTHLMEAIGIALDPDGGRMYVTDLAGNVYAAGLDGSNRREILVAQGNLTGIAHAVLPTGTSF,not soluble
13,MSLNQWMELADRVLAGAEVTDEEALSILHCPDEDILLLMHGAFHIRKHFYGKKVKLNMIMNAKSGLCPENCGYCSQSAISKAPIESYRMVNKETLLEGAKRAHDLNIGTYCIVASGRGPSNREVDQVVDAVQEIKETYGLKICACLGLLKPEQAKRLKDAGVDRYNHNLNTSQRNHSNITTSHTYDDRVNTVEIAKESGLSPCSGAIIGMKETKQDVIDIAKSLKALDADSIPVNFLHAIDGTPLEGVNELNPLYCLKVLALFRFINPSKEIRISGGREVNLRTLQPLGLYAANSIFVGDYLTTAGQEETEDHKMLSDLGFEVESVEEMKASLSAKSEGHHHHHH,soluble
14,GSHMQAEILLTLKLQQKLFADPRRISLLKHIALSGSISQGAKDAGISYKSAWDAINEMNQLSEHILVERATGGKGGGGAVLTRYGQRLIQLYDLLAQIQQKAFDVLSDDDALPLNSLLAAISRFSLQTSARNQWFGTITARDHDDVQQHVDVLLADGKTRLKVAITAQSGARLGLDEGKEVLILLKAPWVGITQDEAVAQNADNQLPGIISHIERGAEQCEVLMALPDGQTLCATVPVNEATSLQQGQNVTAYFNADSVIIATLC,soluble
15,VDQVFVVGHKNLDMDALGSAVGMQLFASNVIENSYALYDEEQMSPDIERAVSFIEKEGVTKLLSVKDAMGMVTNRSLLILVDHSKTALTLSKEFYDLFTQTIVIDHHRRDQDFPDNAVITYIESGASSASELVTELIQFQNSKKNRLSRMQASVLMAGMMLDTKNFTSRVTSRTFDVASYLRTRGSDSIAIQEIAATDF,not soluble
